Source: paper doi:10.1101/2021.09.16.460654

Biological target: S. aureus FakA (S. aureus)

For “FakB1(A158L) (from UniProt X5EH37 1-288) (natural protein)”, which apparent KM for FakB1(A158L) in the FA kinase assay (0.2 µM FakA, [14C]16:0) is on record?
Its apparent KM for FakB1(A158L) in the FA kinase assay (0.2 µM FakA, [14C]16:0) is 0.13 µM.

“S. aureus wild-type FakB1 (from UniProt X5EH37 1-288) (natural protein)” was tested. Which apparent KM for FakB1 in the FA kinase assay (0.2 µM FakA, [14C]16:0) did it give?
Its apparent KM for FakB1 in the FA kinase assay (0.2 µM FakA, [14C]16:0) is 0.13 µM.

Which apparent KM for FakB1(A121I) in the FA kinase assay (0.2 µM FakA, [14C]16:0) does the source give for “FakB1(A121I) (from UniProt X5EH37 1-288) (natural protein)” here?
Its apparent KM for FakB1(A121I) in the FA kinase assay (0.2 µM FakA, [14C]16:0) is 0.1 µM.
